In publication PMC8882475 one finds Kd data, which are given here for one substance.

The term Kd denotes the constant that tells how readily two partners part at equilibrium. Low readings indicate tighter binding, high ones weaker binding.

The assay has as its target FcRn (UniProt P55899). Kind of assay: BLI. A general note: In BLI a coated tip is dipped into the sample, and binding shifts an interference pattern.

On to “SI–F019, huACE2 (18–615) - IgG1 Fc null (from UniProt Q9BYF1-1 18-615) (Fc fusion)”, for which the Kd stood at 37.6 nM. This lies in the double-digit nanomolar range.
